In patent publication US20100056764A1 (Novo Nordisk, published 2010):

How the values were obtained:
[1] = biological target: T1, recombinant NKG2D-Fc protein (R&D Systems), immobilized on a Biacore CM5 chip (human, UniProt P26718 78-216); assay: SPR (Biacore), NKG2D-Fc immobilized on CM5 chip at 600 RU, antibody in solution, Langmuir fit
T1 construct: also called NKG2D-hFc; hFc-NKG2D; not shown: Fc portion of the purchased fusion protein
T1 sequence: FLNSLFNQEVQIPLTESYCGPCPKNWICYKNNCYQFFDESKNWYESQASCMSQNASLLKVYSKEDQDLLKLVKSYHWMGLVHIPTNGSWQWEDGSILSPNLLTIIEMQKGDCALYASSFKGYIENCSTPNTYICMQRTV
Description: (§1) Protein immobilisation. […] Recombinant NKG2D-Fc proteins were immobilized covalently to carboxyl groups in the dextran layer on a Sensor Chip CM5 (Biacore GE Healthcare; BR-1000-14). The sensor chip surface was activated with EDC/NHS (N-ethyl-N′-(3-dimethylaminopropyl)carbodiimidehydrochloride and N-hydroxysuccinimide (Biacore GE Healthcare; BR-1000-50)). Proteins were diluted to 10 μg/ml in coupling buffer (10 mM acetate, pH 5.2) and injected until the appropriate immobilization level was reached (i.e. 500 to 1000 RU). Deactivation of the remaining activated groups was performed using 100 mM ethanolamine pH 8 (Biacore GE Healthcare; BR-1000-50).
(§2) Affinity measurement. […] For kinetic experiments, serial dilutions of soluble antibodies (from 0.3 to 30 nanoM) were injected for 2 min at a constant flow rate of 40 μl/min on dextran layers containing immobilized NKG2D-Fc proteins (500 to 1000 RU), and allowed to dissociate for 3 min before regeneration by a eight second injection of 500 mM NaCl and 10 mM NaOH buffer. The resulting sensorgrams were analysed by global fitting using the Langmuir model. The dissociation constant (KD) was calculated as KD=kd/ka.

[2] = biological target: T2, rhesus monkey NKG2D on NK and CD8+ T cells (rhesus monkey (Macaca mulatta), UniProt Q9MZJ7 1-216); assay: flow cytometry on rhesus PBMC, NK cells gated; the legend names 16F16 purified from the original hybridoma
T2 construct: whole, on cells; Target on rhesus PBMC; also called rhesus NKG2D
T2 sequence (looked up): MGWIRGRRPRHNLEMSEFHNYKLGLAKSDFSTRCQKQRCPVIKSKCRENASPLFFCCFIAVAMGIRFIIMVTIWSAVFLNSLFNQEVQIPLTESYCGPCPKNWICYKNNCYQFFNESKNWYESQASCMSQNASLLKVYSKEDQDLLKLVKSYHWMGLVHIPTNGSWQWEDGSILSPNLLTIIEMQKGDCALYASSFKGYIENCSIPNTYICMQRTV
Description: Flow cytometry assay—man and monkey PBMC. Perifieral blood mononuclear cells (PMBCs) were isolated from humans, or from Cynomologous or Rhesus monkey. All animal work were performed according to Danish National Research Council guidelines.

pig NKG2D = biological target: T3, pig NKG2D (pig, UniProt Q9GLF5 1-214, limits assumed); assay: not described
T3 construct: The assay format for the cross-reactivity test is not described
T3 sequence (looked up): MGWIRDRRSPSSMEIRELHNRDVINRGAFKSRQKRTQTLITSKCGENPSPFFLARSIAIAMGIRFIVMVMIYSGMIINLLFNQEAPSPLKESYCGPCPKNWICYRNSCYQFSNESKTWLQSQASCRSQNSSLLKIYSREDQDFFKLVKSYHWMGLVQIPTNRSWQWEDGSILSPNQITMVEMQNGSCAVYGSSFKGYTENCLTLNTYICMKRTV

mouse NKG2D = biological target: T4, mouse NKG2D (mouse, UniProt O54709 1-232, limits assumed); assay: not described
T4 construct: The assay format for the cross-reactivity test is not described
T4 sequence (looked up): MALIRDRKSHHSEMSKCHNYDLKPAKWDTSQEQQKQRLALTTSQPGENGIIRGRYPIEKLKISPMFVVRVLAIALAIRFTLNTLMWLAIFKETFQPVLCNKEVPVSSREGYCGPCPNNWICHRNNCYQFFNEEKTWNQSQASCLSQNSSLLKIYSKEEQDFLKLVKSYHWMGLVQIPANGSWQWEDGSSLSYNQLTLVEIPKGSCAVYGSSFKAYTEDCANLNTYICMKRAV

rat NKG2D = biological target: T5, rat NKG2D (rat, UniProt O70215 1-215, limits assumed); assay: not described
T5 construct: The assay format for the cross-reactivity test is not described
T5 sequence (looked up): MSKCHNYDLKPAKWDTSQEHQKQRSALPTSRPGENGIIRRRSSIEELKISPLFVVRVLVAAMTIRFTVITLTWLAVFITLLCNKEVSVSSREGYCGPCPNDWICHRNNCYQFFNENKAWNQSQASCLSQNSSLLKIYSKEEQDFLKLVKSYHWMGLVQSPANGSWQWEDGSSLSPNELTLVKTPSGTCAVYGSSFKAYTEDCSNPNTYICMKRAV

dog NKG2D = biological target: T6, dog NKG2D (dog, UniProt A0A8I3PNL2 1-217); assay: not described
T6 construct: The assay format for the cross-reactivity test is not described
T6 sequence: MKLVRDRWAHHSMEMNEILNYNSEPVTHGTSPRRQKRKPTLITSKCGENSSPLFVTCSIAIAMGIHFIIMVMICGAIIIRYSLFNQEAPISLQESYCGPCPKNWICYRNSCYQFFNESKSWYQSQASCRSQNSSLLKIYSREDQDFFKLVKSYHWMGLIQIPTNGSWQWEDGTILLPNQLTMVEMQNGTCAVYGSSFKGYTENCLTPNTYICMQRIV

[3] = biological target: T1, recombinant NKG2D-Fc protein (R&D …); assay: SPR (Biacore), mean of the two NKG2D-Fc densities
Description: as §1, §2

[4] = biological target: T7, human NKG2D (hNKG2D) on the cell surface (human, UniProt P26718 1-216); assay: flow cytometry, NKG2D/DAP10 BaF/3 cells pre-incubated with antibody, then 1 µg MICA-mFc (competitor)
T7 construct: Carried by BaF/3 cells co-transfected with full-length NKG2D and DAP10, or naturally by human NK, CD8+ T and gamma-delta T cells (PBMC, whole blood); also called cell-surface NKG2D; NKG2D- and DAP10-expressing BaF/3 cells
T7 chain: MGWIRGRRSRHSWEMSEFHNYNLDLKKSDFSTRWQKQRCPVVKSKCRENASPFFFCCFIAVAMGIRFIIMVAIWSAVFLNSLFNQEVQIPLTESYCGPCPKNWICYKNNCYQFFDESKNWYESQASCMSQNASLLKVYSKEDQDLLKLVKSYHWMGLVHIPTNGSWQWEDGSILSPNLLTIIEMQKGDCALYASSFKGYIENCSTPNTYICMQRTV
Description: Flow cytometry assays—MICA blockade. […] The cells were then analysed on a B&D FACSArray flow cytometer. The degree of reduction of MICA binding by preincubation was analysed as MFI (mean fluorescence intensity) of binding with pre-incubation in % of binding of MICA without preincubation.

B1: 16F16, fully human anti-hNKG2D monoclonal antibody, recombinantly expressed as IgG4 isotype (antibody, V domains shown)
VH: EVQLVESGGGLVKPGGSLRLSCAASGFTFSSYSMNWVRQAPGKGLEWVSSITSSSSYIYYADSVKGRFTISRDNAKNSLYLQMNSLRAEDTAVYYCARDRRYFDWFPLDYRGQGTLVTVSS
VL: DIQMTQSPSSLSASVGDRVTITCRASQGISSWLAWYQQKPEKAPKSLIYAASSLQSGVPSRFSGSGSGTDFTLTISSLQPEDFATYYCQQYNGYPYTFGQGTKLEIKR
notes: also called 16F16 IgG4; 16F16 (IgG4)
[1]
  Kd: 0.165 nM
[2]
  binding result: binds
Pig NKG2D
  binding result: no binding
Mouse NKG2D
  binding result: no binding
Rat NKG2D
  binding result: no binding
Dog NKG2D
  binding result: no binding
[3]
  Kd: 0.172 nM
[4]
  IC50: 0.017 nM
